The results in this text go back to patent US20040180342, “Multimers of S. solfataricus single-stranded DNA-binding protein and methods of use thereof” (REGENTS OF THE UNIVERSITY OF CALIFORNIA, published 2004).

Data set [1] has as its target T1, SsoSSB (S. solfataricus SSB, SSO2364) (Sulfolobus solfataricus, UniProt Q97W73 SEQ:1-148).
T1 sequence: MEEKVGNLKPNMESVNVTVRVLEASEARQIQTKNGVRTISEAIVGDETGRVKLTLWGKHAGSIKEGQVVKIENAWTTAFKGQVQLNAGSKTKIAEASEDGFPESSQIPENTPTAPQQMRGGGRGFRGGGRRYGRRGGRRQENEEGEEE
Description: competition. The following applies: linear pUC19 at 100-fold molar (nucleotide) excess did not alter shift of 63-mer; 75 C.

The target of data set [2] is T1, SsoSSB (S. solfataricus SSB, SSO2364). Description: EMSA; 10 uM nucleotides, constant mobility reached at 2 uM protein; saturation about 1 SSB per 5 nt; non-cooperative; 75 C, 30 mM Tris OAc pH 7.5, 10 mM MgOAc2, 5 mM. To be noted: tags: untagged, expressed from pET21a in E. coli, heat treated at 80 C; chain copies: 4 (tetramer main form in solution; dimer and monomer also present); label: 5'-32P (T4 polynucleotide kinase end label). On the procedure:
To determine the occluded binding site size of the protein and to evaluate the activity of the SsoSSB protein, we performed acrylamide gel mobility-shift assays with a radioactively labeled single-stranded oligonucleotide that was 63 nucleotides in length (FIG. 5). When a fixed quantity of radiolabeled oligonucleotide was incubated with increasing quantities of protein, a band of reduced mobility was observed. The apparent mobility further decreased upon addition of more protein, finally achieving a constant mobility after the addition of 2 μM protein. The absence of discrete species implied rapid equilibration between bound and free forms of the complexes, and consistent with this possibility, more discrete species were visualized when electrophoresis was performed more rapidly (at high voltage). […] The M. jannaschii RPA protein has a site size of 15 to 20 nucleotides (Kelly, T. J. et al., Proc Natl Acad Sci USA 95:14634-14639 (1998)) whereas the site size of E. coli SSB protein, depending on solution conditions, varies from 8 to 16 nucleotides per monomer. The apparent site size of SsoSSB protein is similar to the 7 nucleotide site size observed for phage T4 SSB protein, gp32. […] The observed band-retardation pattern is likely the result of a combination of this non-cooperative binding and rapid equilibration of protein-DNA complexes during electrophoresis.

Take linearized pUC19: the fold lower affinity than ssDNA (competition) (fold lower affinity than ssDNA) in data set [1] was over 100.

B1: 63-mer oligonucleotide (ssDNA)
DNA: ACAGCACCAATGAAATCTATTAAGCTCCTCATCGTCCGCAAAAATATCGTCACCTCAAAAGGA
As for B1, the binding result in data set [2] is recorded as “binds”.
